{"source": "paper PMC3866644", "about": "(RNA, 2014)", "experiment_in_all_cases": "pull-down", "key": {"His6 fusion Prp28": {"target": "T1, His6 fusion Prp28 (yeast, UniProt P23394 1-588)", "T1 sequence": "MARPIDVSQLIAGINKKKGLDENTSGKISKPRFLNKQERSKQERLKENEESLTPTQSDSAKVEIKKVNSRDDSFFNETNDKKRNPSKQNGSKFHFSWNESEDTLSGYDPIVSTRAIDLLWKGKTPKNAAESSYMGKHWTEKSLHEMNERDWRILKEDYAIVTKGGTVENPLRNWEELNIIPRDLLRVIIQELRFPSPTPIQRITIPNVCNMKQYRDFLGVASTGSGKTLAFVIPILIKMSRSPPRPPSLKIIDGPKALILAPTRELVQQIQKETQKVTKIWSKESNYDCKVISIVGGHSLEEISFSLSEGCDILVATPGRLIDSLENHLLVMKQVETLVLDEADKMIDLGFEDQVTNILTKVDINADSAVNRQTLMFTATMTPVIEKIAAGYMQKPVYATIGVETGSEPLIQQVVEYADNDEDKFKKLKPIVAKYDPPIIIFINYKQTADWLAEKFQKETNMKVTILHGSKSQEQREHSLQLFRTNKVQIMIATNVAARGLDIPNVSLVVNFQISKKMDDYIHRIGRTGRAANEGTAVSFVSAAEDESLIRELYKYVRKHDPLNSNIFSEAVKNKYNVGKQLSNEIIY"}, "[1]": {"target": "T2, His6 fusion Prp40, full-length (yeast, UniProt P33203 1-583)", "T2 sequence": "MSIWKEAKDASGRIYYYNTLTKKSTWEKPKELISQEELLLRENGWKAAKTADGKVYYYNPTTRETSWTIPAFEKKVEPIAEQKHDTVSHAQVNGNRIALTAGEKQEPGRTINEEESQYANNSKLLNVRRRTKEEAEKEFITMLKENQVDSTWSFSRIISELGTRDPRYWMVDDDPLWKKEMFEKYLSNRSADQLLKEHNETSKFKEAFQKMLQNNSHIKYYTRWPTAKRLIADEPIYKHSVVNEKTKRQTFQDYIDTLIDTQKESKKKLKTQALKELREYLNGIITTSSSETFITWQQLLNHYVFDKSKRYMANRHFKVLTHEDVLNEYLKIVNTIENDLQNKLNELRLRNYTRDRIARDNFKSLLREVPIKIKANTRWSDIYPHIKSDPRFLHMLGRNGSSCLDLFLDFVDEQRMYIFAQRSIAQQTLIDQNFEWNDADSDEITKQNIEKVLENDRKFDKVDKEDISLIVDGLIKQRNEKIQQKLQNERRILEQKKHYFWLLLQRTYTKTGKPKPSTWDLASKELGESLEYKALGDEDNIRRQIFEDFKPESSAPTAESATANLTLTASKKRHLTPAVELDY"}, "[2]": {"target": "T3, His6 fusion Prp39, full-length (yeast, UniProt P39682 1-629)", "T3 sequence": "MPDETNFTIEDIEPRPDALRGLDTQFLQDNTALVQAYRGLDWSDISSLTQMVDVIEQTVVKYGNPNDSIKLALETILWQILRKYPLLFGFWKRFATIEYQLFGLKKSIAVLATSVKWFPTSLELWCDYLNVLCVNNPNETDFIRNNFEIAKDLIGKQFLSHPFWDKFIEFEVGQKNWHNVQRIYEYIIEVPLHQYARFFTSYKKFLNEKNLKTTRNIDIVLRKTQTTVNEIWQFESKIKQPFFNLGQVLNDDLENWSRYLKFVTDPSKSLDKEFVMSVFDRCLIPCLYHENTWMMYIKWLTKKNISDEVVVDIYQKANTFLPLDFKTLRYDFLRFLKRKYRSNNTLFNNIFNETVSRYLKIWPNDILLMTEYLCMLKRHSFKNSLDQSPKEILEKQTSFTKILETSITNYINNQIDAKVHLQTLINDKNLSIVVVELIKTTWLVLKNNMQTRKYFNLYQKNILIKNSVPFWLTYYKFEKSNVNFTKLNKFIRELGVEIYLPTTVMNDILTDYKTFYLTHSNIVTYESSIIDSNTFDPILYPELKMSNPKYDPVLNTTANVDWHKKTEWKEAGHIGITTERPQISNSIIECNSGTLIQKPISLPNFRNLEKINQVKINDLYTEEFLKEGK"}}, "data": [{"binder": "GST-fusion Prp8-NTD (Prp8 residues 1-330), wild-type sequence (domain or fragment) not shown", "values": [{"measurement": "binding result", "setting": "His6 fusion Prp28", "result": "binds"}, {"measurement": "binding result", "setting": "[1]", "result": "binds"}, {"measurement": "binding result", "setting": "[2]", "result": "binds"}]}, {"binder": "GST-fusion Prp8-NTD(P263L/W279G) (domain or fragment) MSGLPPPPPGFEEDSDLALPPPPPPPPGYEIEELDNPMVPSSVNEDTFLPPPPPPPSNFEINAEEIVDFTLPPPPPPPGLDELETKAEKKVELHGKRKLDIGKDTFVTRKSRKRAKKMTKKAKRSNLYTPKAEMPPEHLRKIINTHSDMASKMYNTDKKAFLGALKYLPHAILKLLENMPHPWEQAKEVKVLYHTSGAITFVNETPRVIEPVYTAQWSATWIAMRREKRDRTHFKRMRFPPFDDDEPPLSYEQHIENIEPLDLINLPLDSQDDEYVKDGLYDSRPLEEDSKKVNGTSYKKWSFDLPEMSNLYRLSTPLRDEVTDKNYYYL", "values": [{"measurement": "binding result", "setting": "[1]", "result": "binds"}, {"measurement": "binding result", "setting": "[2]", "result": "binds"}]}, {"binder": "GST-fusion Prp8-NTD(R226G) (domain or fragment) MSGLPPPPPGFEEDSDLALPPPPPPPPGYEIEELDNPMVPSSVNEDTFLPPPPPPPSNFEINAEEIVDFTLPPPPPPPGLDELETKAEKKVELHGKRKLDIGKDTFVTRKSRKRAKKMTKKAKRSNLYTPKAEMPPEHLRKIINTHSDMASKMYNTDKKAFLGALKYLPHAILKLLENMPHPWEQAKEVKVLYHTSGAITFVNETPRVIEPVYTAQWSATWIAMRGEKRDRTHFKRMRFPPFDDDEPPLSYEQHIENIEPLDPINLPLDSQDDEYVKDWLYDSRPLEEDSKKVNGTSYKKWSFDLPEMSNLYRLSTPLRDEVTDKNYYYL", "values": [{"measurement": "binding result", "setting": "[1]", "result": "binds"}, {"measurement": "binding result", "setting": "[2]", "result": "binds"}]}, {"binder": "GST-fusion Prp8-NTD(D273G) (domain or fragment) MSGLPPPPPGFEEDSDLALPPPPPPPPGYEIEELDNPMVPSSVNEDTFLPPPPPPPSNFEINAEEIVDFTLPPPPPPPGLDELETKAEKKVELHGKRKLDIGKDTFVTRKSRKRAKKMTKKAKRSNLYTPKAEMPPEHLRKIINTHSDMASKMYNTDKKAFLGALKYLPHAILKLLENMPHPWEQAKEVKVLYHTSGAITFVNETPRVIEPVYTAQWSATWIAMRREKRDRTHFKRMRFPPFDDDEPPLSYEQHIENIEPLDPINLPLDSQDGEYVKDWLYDSRPLEEDSKKVNGTSYKKWSFDLPEMSNLYRLSTPLRDEVTDKNYYYL", "values": [{"measurement": "binding result", "setting": "[1]", "result": "binds"}, {"measurement": "binding result", "setting": "[2]", "result": "binds"}]}]}
